Measurements taken from publication PMC3322551.

Molecular target: porcine plasminogen (porcine)
Test: SPR

Row | Substance | Kd [nM] | kon [M⁻¹ s⁻¹]
1 | F3_(P146/JΔK), strain J F3_(P146) without its C-terminal lysine (domain or fragment) | 210 | 13000
2 | F3_(P146/J), recombinant C-terminal fragment of P146 (MHJ_0663) of Mycoplasma hyopneumoniae strain J (domain or fragment) | 39 | 46000
3 | F3_(P146/232), recombinant C-terminal fragment of P146 (Mhp684) of Mycoplasma hyopneumoniae strain 232 (domain or fragment) | 46 | 170000
4 | F3_(P146/232ΔR), strain 232 F3_(P146) without its C-terminal arginine (domain or fragment) | 220 | 13000
